The conditions of the data set: pH 6, Thermal, DSC, Sodium cacodylate 2 mM, reversible: yes(>80%), whole UniProt chain shown; for unfolding free energy: 25 °C.
The mark [1] stands for this setting: Paenibacillus macerans, CaCl2 1 mM.

Several values for one entry are separate records, joined by “and”; a condition that tells them apart may be missing. Equal values may be shown once.

B1: Beta-glucanase wild type, P23904 (protein)
chain: MKKKSCFTLVTTFAFSLIFSVSALAGSVFWEPLSYFNRSTWEKADGYSNGGVFNCTWRANNVNFTNDGKLKLGLTSSAYNKFDCAEYRSTNIYGYGLYEVSMKPAKNTGIVSSFFTYTGPAHGTQWDEIDIEFLGKDTTKVQFNYYTNGVGGHEKVISLGFDASKGFHTYAFDWQPGYIKWYVDGVLKHTATANIPSTPGKIMMNLWNGTGVDDWLGSYNGANPLYAEYDWVKYTSN
Turning to B1, under setting [1], the unfolding free energy turned out to be 9 kcal/mol; the Tm was 50.8 °C and 50.5 °C; the “unfolding enthalpy (calorimetric)” value is 139 kcal/mol and 156 kcal/mol. Where the note is “Paenibacillus macerans”, the unfolding free energy came out at 6.1 kcal/mol, the Tm came out at 44.5 °C and the “unfolding enthalpy (calorimetric)” value is 119 kcal/mol.

B2: Beta-glucanase wild type, P07980 (protein)
chain: MKRVLLILVTGLFMSLCGITSSVSAQTGGSFFEPFNSYNSGLWQKADGYSNGDMFNCTWRANNVSMTSLGEMRLALTSPSYNKFDCGENRSVQTYGYGLYEVRMKPAKNTGIVSSFFTYTGPTEGTPWDEIDIEFLGKDTTKVQFNYYTNGAGNHEKFADLGFDAANAYHTYAFDWQPNSIKWYVDGQLKHTATTQIPAAPGKIMMNLWNGTGVDDWLGSYNGVNPIYAHYDWMRYRKK
For B2, the Tm runs as follows: (Bacillus amyloliquefaciens, CaCl2 1 mM) 58.9 °C; (Bacillus amyloliquefaciens) 48.7 °C.

For orientation: Tm means the temperature at the midpoint of the melting transition.

The values are drawn from FireProtDB (doi:10.1002/pro.5560051112).
